Measured values published in patent US20250326867A1, “De novo designed chlorophyll special pair proteins” (University of Washington, priority 2024, published 2025).

Assays:
[1] = ZnPPaM fluorescence titration, 1:1 binding model; conditions: 1:1 binding model of protein monomer to ZnPPaM, approximates average of KD1 and KD2, read-out: KD estimate
Text: (§1) At longer wavelengths in the UV/visible/near-infrared (UV/vis/NIR), CD spectra can serve as a convenient probe of excitonic interactions between Chls. […] When Chl dimers are arranged in chiral protein environments, however, excitonic interactions can produce delocalized transitions with chiral character, yielding CD signals that are stronger and conservative (i.e., composed of a bisignate doublet that integrates to zero). […] Curve fitting of the CD titrations yields SP2-ZnPPaM dissociation constants (KDs) of 300 nM for KD1 and 2.5 μM for KD2, and SP3-ZnPPaM KDs of 800 nM for KD1 and 1.0 μM for KD2 (data not shown). Due to the lower CD signal of the SP1-ZnPPaM complex, we instead used absorbance and fluorescence to measure the SP1-ZnPPaM interaction. Absorption titrations yielded curve fits with KD1 and KD2 values of 290 nM and 430 nM for SP1, 110 nM and 2.0 μM for SP2, and 350 nM and 940 nM for SP3, respectively (FIG. 9).

[2] = ZnPPaM binding titration monitored by CD in the Qy region; conditions: curve fitting
Text: as §1
Circular Dichroism (CD) spectroscopy: CD spectra were collected using a J-1500 spectrophotometer. For protein secondary structure assays, spectra were measured on samples of 0.2-0.4 mg/mL protein in 1 mm quartz cuvettes from 260 to 190 nm with a 1 nm bandwidth, 1 nm data interval, data integration time (DIT) of 1 second, and scanning speed of 50 nm/min. Thermal melts were monitored at 222 nm from 2 to 98° C. with a 2 nm bandwidth and 8 second DIT. UV/vis/near-infrared (NIR) CD transitions of protein-bound Chls were examined in the 800-300 nm region in 1 cm quartz cuvettes as averages of 10 scans using a 3 nm bandwidth, 1 nm data interval, DIT of 4 seconds, and scanning speed of 50 nm/min unless otherwise noted. UV/vis/NIR CD spectra shown in FIG. 2 were collected after sterile filtering with 0.22 μm filter and PD-10 desalting column purification (Sephadex™ G-25 M resin, Cytiva Life Sciences). Each spectrum represents the average of two independent sample preparations. Samples contained 8-15 μM protein (monomer concentration) with equimolar ZnPPaM, 150 mM NaCl, and 10 mM Tris buffer at pH 8. ZnPPaM dry powder was dissolved in methanol stock solutions immediately before adding to protein solutions. Samples were allowed to incubate for 8-16 hours at room temperature prior to measuring spectra.

[3] = ZnPPaM binding titration monitored by UV/vis absorbance; conditions: absorption titration
Experimental: FIG. 9. SP2-ZnPPaM binding titration monitored by UV/vis absorbance. (a) UV/vis titration of ZnPPaM into a solution of 20 μM SP2 dimer ([…] of SP2 monomer) in 150 mM NaCl, and 10 mM Tris at pH 8. Samples were prepared separately with 0.25 to 4 equivalents (eq.) of ZnPPaM per SP2 protein dimer (2.0 eq. ZnPPaM would be a stoichiometric amount). The y-axis is the molar extinction coefficient, &, or OD divided by ZnPPaM concentration. ZnPPaM was added to protein samples from a DMSO stock solution. Samples were incubated overnight for 20 hours at 4° C. before measurement at room temperature. (b) The same data as in panel (a) zoomed in on the Qy region. Arrows indicate the direction & changes as a function of increasing ZnPPaM concentration. (c) Fitted spectra and (d) species concentration vs. molar ratio of ligand to protein from fitting of the absorbance spectra in panels (a) and (b). During fitting, only the P+L→PL and PL+L→PL2 reactions were considered, and ZnPPaM aggregation was disregarded. (P represents SP2 dimer protein and L represents ZnPPaM ligand). Curve fitting gives dissociation constants (KDs) of 110 nM and 2.0 μM for KD1 and KD2, respectively. Fittings were performed with an algorithm that combines singular value decomposition and least squares regression, as implemented in ReactLab™ Equilibria. (e) Full spectra and (f) the Qy region of a second titration with SP2 dimer protein concentration held at 2.0 μM. At 2.0 μM protein, the intensities of the spectral features at 669 and 692 nm depend upon the molar ratio of protein to ZnPPaM in a manner similar to the 20 μM protein titration shown in panels (a) and (b).
as §1
Protein-chlorophyll sample preparation: Zn pheophorbide a methyl ester (ZnPPaM) was purchased from Frontier Scientific, Inc. ZnPPaM stock solutions were prepared in dimethyl sulfoxide (DMSO) or methanol to concentrations between 200 μM and 1 mM. ZnPPaM concentrations were determined using mass measurements and by using the known absorptivity of Zn pheophytin a, which has a similar absorbance spectrum and an extinction coefficient €659 nm of 77,300 M^−1 cm^−1 in 80% acetone/20% deionized water (Jones et al. 1976). Ultraviolet/visible (UV/vis) absorbance spectra were collected using a V-750 spectrophotometer with a 1 nm bandwidth and 400 nm/min scanning speed. Protein-ZnPPaM complexes were prepared by slowly adding freshly-prepared ZnPPaM stock solution to protein solution in aqueous buffer at room temperature and incubating samples for several hours. Unbound ZnPPaM was removed by centrifugation to pellet precipitated ZnPPaM, sterile filtration using a 0.22 μm syringe filter, and/or running a PD-10 desalting column purification (Sephadex™ G-25 M resin, Cytiva Life Sciences).

CpcA-PEB = biological target: T1, CpcA-PEB (Synechocystis sp., UniProt Q54715); experiment: Excitation energy transfer in 2D surface arrays by FLIM / time-resolved single photon counting; conditions: 485 nm laser
T1 construct: made in house; host or cells: E. coli
T1 sequence (Q54715 whole entry): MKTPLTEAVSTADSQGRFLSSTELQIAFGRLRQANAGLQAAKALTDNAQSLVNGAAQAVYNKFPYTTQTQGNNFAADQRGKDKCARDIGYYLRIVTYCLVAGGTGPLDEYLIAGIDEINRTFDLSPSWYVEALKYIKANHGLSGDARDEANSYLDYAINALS
Text: Native special pairs play a critical role as energy transfer acceptors for antenna proteins. To test whether our designed SP proteins participate in energy transfer with natural light-harvesting proteins, we analyzed excitation energy transfer in 2D surface arrays using Fluorescence Lifetime Imaging Microscopy (FLIM) in combination with nanoimprint lithography (Huang, Vasilev, and Hunter 2020) (FIG. 5). We selected the cyanobacterial antenna protein CpcA with attached phycoerythrobilin (PEB) as the energy transfer donor. CpcA-PEB was purified from E. coli, and gives a strong fluorescence emission maximum at 568 nm and emission extending past 630 nm (Barnett et al. 2017), overlapping with the excitation spectrum of Zn pheophorbide a (ZnPPa) when bound to SP2. […]
To quantify the strength of the interaction between CpcA-PEB and SP2-ZnPPa, we used time-resolved single photon counting. The surface was illuminated with a 485 nm picosecond laser filtered at 620 nm (donor emission), and photons were counted for individual pixels (surface resolution approximately 300 nm) over time, allowing both total fluorescence intensity and lifetime to be analyzed (FIG. 5d). In regions with only CpcA-PEB, fluorescence intensity was above 4000 arbitrary units (a.u.) and the lifetime was over 2 ns (τav=2058 ps). […]

[4] = first ZnPPaM binding (data not shown), read-out: dissociation constant KD1
[5] = second ZnPPaM binding (data not shown), read-out: dissociation constant KD2
[6] = P+L→PL, 150 mM NaCl, 10 mM Tris pH 8, read-out: dissociation constant KD1
[7] = PL+L→PL2, read-out: dissociation constant KD2

Molecule	Kd [1] [nM]	Kd [2, 4] [nM]	Kd [2, 5] [nM]	Kd [3, 6] [nM]	Kd ([3]; PL+L→PL2, 150 mM NaCl, 10 mM Tris pH 8, read-out: dissociation constant KD2) [nM]	energy transfer efficiency of CpcA-PEB to SP2-ZnPPa (CpcA-PEB; 2D arrays on poly-L-lysine glass, 620 nm filter) [%]	donor fluorescence lifetime τav (CpcA-PEB; regions with both CpcA-PEB and SP2-ZnPPa, 620 nm donor emission (CpcA-PEB only: 2058 ps)) [ps]	Kd [3, 7] [nM]
SP2: de novo designed chlorophyll special pair protein, C2 homodimer (protein, homodimer; VARIANT 1..6 optionally absent; VARIANT 33 optionally absent; VARIANT 89..100 optionally absent; VARIANT 111..115 optionally absent; VARIANT 151..169 optionally absent; VARIANT 197..199 optionally absent, de novo designed chlorophyll special pair protein, C2 homodimer) SGSGSSDEEFKFLATEAKMLITAAERLAGTDPELQEMVALIKKELEQAERTFRNGDKSEAQRQLEFVLTAARAVMNVAAAANAAGTDPELIEMVLRILKQLKEAIRTFQNGDQEEAETQLRFVLRAAIAVAVVAAALVLAGTDPELQEMVKQILEELKQAIETFARGDKEKALTQLLFVAWAAHAVAMIAAAANLAGTDPRLQQQVKEILEKLKEAIETFQKGDEEQAFRQLAEVLAEAALVALRAALTN	480	300	2500	110	2000	–	–	–
SP2-ZnPPa: SP2 protein with bound Zn pheophorbide a (ZnPPa), energy transfer acceptor (protein) SGSGSSDEEFKFLATEAKMLITAAERLAGTDPELQEMVALIKKELEQAERTFRNGDKSEAQRQLEFVLTAARAVMNVAAAANAAGTDPELIEMVLRILKQLKEAIRTFQNGDQEEAETQLRFVLRAAIAVAVVAAALVLAGTDPELQEMVKQILEELKQAIETFARGDKEKALTQLLFVAWAAHAVAMIAAAANLAGTDPRLQQQVKEILEKLKEAIETFQKGDEEQAFRQLAEVLAEAALVALRAALTN	–	–	–	–	–	59	839	–
SP1: de novo designed chlorophyll special pair protein, C2 homodimer (protein, homodimer; VARIANT 1..2 optionally absent, de novo designed chlorophyll special pair protein, C2 homodimer) GGDSRELIARYQILLAELAAIRADIAAERTGDPYVRKLARELKRLAQEAAEEVKRDPSSSDVNMALLLILLMIELAVRALEAAERTGDPEVRELAAELVWLAVEAAEEVQRNPSSSDVWLALHLIMLAIWAAVAALEAAERTGDPEVRELARELVRLAVEAAEEVQRNPSSKEVYMALLLILIAILEAVLSLLRAERSGDPEKREKARERVREAVERAEEVQR	660	–	–	290	–	–	–	430
SP3: de novo designed chlorophyll special pair protein, C2 homodimer (protein, homodimer; VARIANT 1..4 optionally absent, de novo designed chlorophyll special pair protein, C2 homodimer) SGSSEELARESAEAAWRLAQAGTRLMLAWIRGDLKEIAEALIELARAVQELARVAKEYGNDELAKTAALLAAHVAMLAILVLIRAIKEGDDEVRELAKTAIKLASTAAKIVLDALPTAEEVRQITLLAKLAEEAADKKNEDSALAVGIAAAAVLLALLALEAAQKAGIEEAEKGARLLLKLAMDAARKKNPEEALAVFNAALDVSIALKLLQSAKRAGSEETRKLAEEMLRQALERARK	120	800	1000	350	–	–	–	940
